This test deals with Recombinant protein Claudin 18.2. The test is described as follows: ELISA on plate-coated recombinant Claudin 18.2, OD450; Kd table under the graph, no unit in the table, unit from the x axis log[antibody] nM. In general terms: ELISA stands for enzyme-linked immunosorbent assay.
Sequence of Recombinant protein Claudin 18.2 (chain, as listed by the source limits assumed, form in doubt): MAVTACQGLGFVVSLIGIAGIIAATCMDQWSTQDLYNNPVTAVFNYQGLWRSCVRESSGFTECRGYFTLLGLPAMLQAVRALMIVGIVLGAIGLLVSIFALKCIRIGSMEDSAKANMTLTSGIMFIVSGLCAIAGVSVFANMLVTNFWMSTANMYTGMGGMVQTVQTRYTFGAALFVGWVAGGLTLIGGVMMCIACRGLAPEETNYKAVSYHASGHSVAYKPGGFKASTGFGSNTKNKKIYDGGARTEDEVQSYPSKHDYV

B1: h5C9a (antibody, V domains shown)
VH: EVQLVESGGGLVQPGGSLRLSCAASGYTFTNYGMNWVRQAPGKGLEWVAWINMYTGEPTYADDFKGRFTISRDDSKNTLYLQMNSLRAEDTAVYYCARLYNGNSLDYWGQGTLVTVSS
VL: DIQMTQSPSSLSASVGDRVTITCKSSQSLLNSGNQKSYLTWYQQKPGKAPKLLIYWASTLESGVPSRFSGSGSGTDFTLTISSLQPEDFATYYCQNAYSFPFTFGQGTKVEIK
Regarding B1, the dissociation constant Kd (as a rule, the equilibrium constant for the complex coming apart) is 0.278 nM.

B2: h5C9ot (antibody, V domains shown)
VH: EVQLVESGGGLVQPGGSLRLSCAVSGYTFSMNWVRQAPGKGLEWVAWINMYTGEPTYADDFKGRFTISRDDSKNTLYLQMNSLRAEDTAVYYCARSSMGNGFDYWGQGTLVTVSS
VL: DIQMTQSPSSLSASVGDRVTITCKSSQSLLNSGNQKSYLTWYQQKPGKAPKLLIYWASTLESGVPSRFSGSGSGTDYTLTISSLQPEDFATYYCQNAYSFPFTFGQGTKVEIK
B2: the dissociation constant (Kd) is 0.0987 nM.

B3: h5C9ok (antibody, V domains shown)
VH: EVQLVESGGGLVQPGGSLRLSCAVSGYTFSMNWVRQAPGKGLEWVAWINMYTGEPTYADDFKGRFTISRDDSKNTLYLQMNSLRAEDTAVYYCARLTRGNSLDYWGQGTLVTVSS
VL: DIQMTQSPSSLSASVGDRVTITCKSSQSLLNSGNQKSYLTWYQQKPGKAPKLLIYWASTLESGVPSRFSGSGSGTDYTLTISSLQPEDFATYYCQNAYSFPFTFGQGTKVEIK
Take B3: the Kd turned out to be 0.108 nM.

B4: h5C9ou (antibody, V domains shown)
VH: EVQLVESGGGLVQPGGSLRLSCAVSGYTFSMNWVRQAPGKGLEWVAWINMYTGEPTYADDFKGRFTISRDDSKNTLYLQMNSLRAEDTAVYYCARLSKGNGMDYWGQGTLVTVSS
VL: DIQMTQSPSSLSASVGDRVTITCKSSQSLLNSGNQKSYLTWYQQKPGKAPKLLIYWASTLESGVPSRFSGSGSGTDYTLTISSLQPEDFATYYCQNAYSFPFTFGQGTKVEIK
Regarding B4, the Kd worked out at 0.0919 nM.

B5: h5C9om (antibody, V domains shown)
VH: EVQLVESGGGLVQPGGSLRLSCAVSGYTFSMNWVRQAPGKGLEWVAWINMYTGEPTYADDFKGRFTISRDDSKNTLYLQMNSLRAEDTAVYYCARLARGNGFDYWGQGTLVTVSS
VL: DIQMTQSPSSLSASVGDRVTITCKSSQSLLNSGNQKSYLTWYQQKPGKAPKLLIYWASTLESGVPSRFSGSGSGTDYTLTISSLQPEDFATYYCQNAYSFPFTFGQGTKVEIK
In the case of B5, the Kd was determined as 0.1 nM.

B6: h5C9ow (antibody, V domains shown)
VH: EVQLVESGGGLVQPGGSLRLSCAVSGYTFSMNWVRQAPGKGLEWVAWINMYTGEPTYADDFKGRFTISRDDSKNTLYLQMNSLRAEDTAVYYCARLTKGNGMDYWGQGTLVTVSS
VL: DIQMTQSPSSLSASVGDRVTITCKSSQSLLNSGNQKSYLTWYQQKPGKAPKLLIYWASTLESGVPSRFSGSGSGTDYTLTISSLQPEDFATYYCQNAYSFPFTFGQGTKVEIK
As to B6, the equilibrium dissociation constant (Kd) was 0.0882 nM.

B7: h5C9ol (antibody, V domains shown)
VH: EVQLVESGGGLVQPGGSLRLSCAVSGYTFSMNWVRQAPGKGLEWVAWINMYTGEPTYADDFKGRFTISRDDSKNTLYLQMNSLRAEDTAVYYCARLGPGNVFDYWGQGTLVTVSS
VL: DIQMTQSPSSLSASVGDRVTITCKSSQSLLNSGNQKSYLTWYQQKPGKAPKLLIYWASTLESGVPSRFSGSGSGTDYTLTISSLQPEDFATYYCQNAYSFPFTFGQGTKVEIK
For the molecule B7, the Kd came out at 0.119 nM.

B8: h5C9or (antibody, V domains shown)
VH: EVQLVESGGGLVQPGGSLRLSCAVSGYTFSMNWVRQAPGKGLEWVAWINMYTGEPTYADDFKGRFTISRDDSKNTLYLQMNSLRAEDTAVYYCARLNRGNSMDYWGQGTLVTVSS
VL: DIQMTQSPSSLSASVGDRVTITCKSSQSLLNSGNQKSYLTWYQQKPGKAPKLLIYWASTLESGVPSRFSGSGSGTDYTLTISSLQPEDFATYYCQNAYSFPFTFGQGTKVEIK
With B8, the equilibrium dissociation constant (Kd) stood at 0.0715 nM.

B9: h5C9on (antibody, V domains shown)
VH: EVQLVESGGGLVQPGGSLRLSCAVSGYTFSMNWVRQAPGKGLEWVAWINMYTGEPTYADDFKGRFTISRDDSKNTLYLQMNSLRAEDTAVYYCARTAPGNGFDYWGQGTLVTVSS
VL: DIQMTQSPSSLSASVGDRVTITCKSSQSLLNSGNQKSYLTWYQQKPGKAPKLLIYWASTLESGVPSRFSGSGSGTDYTLTISSLQPEDFATYYCQNAYSFPFTFGQGTKVEIK
In the case of B9, the Kd was 0.131 nM.

B10: h5C9oo (antibody, V domains shown)
VH: EVQLVESGGGLVQPGGSLRLSCAVSGYTFSMNWVRQAPGKGLEWVAWINMYTGEPTYADDFKGRFTISRDDSKNTLYLQMNSLRAEDTAVYYCARLVRGNGFDYWGQGTLVTVSS
VL: DIQMTQSPSSLSASVGDRVTITCKSSQSLLNSGNQKSYLTWYQQKPGKAPKLLIYWASTLESGVPSRFSGSGSGTDYTLTISSLQPEDFATYYCQNAYSFPFTFGQGTKVEIK
Consider B10, for which the Kd turned out to be 0.122 nM.

B11: h5C9os (antibody, V domains shown)
VH: EVQLVESGGGLVQPGGSLRLSCAVSGYTFSMNWVRQAPGKGLEWVAWINMYTGEPTYADDFKGRFTISRDDSKNTLYLQMNSLRAEDTAVYYCARTGTGNTMDYWGQGTLVTVSS
VL: DIQMTQSPSSLSASVGDRVTITCKSSQSLLNSGNQKSYLTWYQQKPGKAPKLLIYWASTLESGVPSRFSGSGSGTDYTLTISSLQPEDFATYYCQNAYSFPFTFGQGTKVEIK
On to B11, for which the Kd stood at 0.134 nM.

B12: h5C9oq (antibody, V domains shown)
VH: EVQLVESGGGLVQPGGSLRLSCAVSGYTFSMNWVRQAPGKGLEWVAWINMYTGEPTYADDFKGRFTISRDDSKNTLYLQMNSLRAEDTAVYYCARLYRGNVMDYWGQGTLVTVSS
VL: DIQMTQSPSSLSASVGDRVTITCKSSQSLLNSGNQKSYLTWYQQKPGKAPKLLIYWASTLESGVPSRFSGSGSGTDYTLTISSLQPEDFATYYCQNAYSFPFTFGQGTKVEIK
B12: the Kd was found to be 0.107 nM.

B13: h5C9ov (antibody, V domains shown)
VH: EVQLVESGGGLVQPGGSLRLSCAVSGYTFSMNWVRQAPGKGLEWVAWINMYTGEPTYADDFKGRFTISRDDSKNTLYLQMNSLRAEDTAVYYCARLVKGNGFDYWGQGTLVTVSS
VL: DIQMTQSPSSLSASVGDRVTITCKSSQSLLNSGNQKSYLTWYQQKPGKAPKLLIYWASTLESGVPSRFSGSGSGTDYTLTISSLQPEDFATYYCQNAYSFPFTFGQGTKVEIK
In the case of B13, the Kd was found to be 0.107 nM.

B14: h5C9op (antibody, V domains shown)
VH: EVQLVESGGGLVQPGGSLRLSCAVSGYTFSMNWVRQAPGKGLEWVAWINMYTGEPTYADDFKGRFTISRDDSKNTLYLQMNSLRAEDTAVYYCARTSRGNGMDYWGQGTLVTVSS
VL: DIQMTQSPSSLSASVGDRVTITCKSSQSLLNSGNQKSYLTWYQQKPGKAPKLLIYWASTLESGVPSRFSGSGSGTDYTLTISSLQPEDFATYYCQNAYSFPFTFGQGTKVEIK
As for B14, the Kd was 0.109 nM.

B15: h5C9n (antibody, V domains shown)
VH: EVQLVESGGGLVQPGGSLRLSCAVSGYTFTNYGMNWVRQAPGKGLEWVAWINMYTGEPTYADDFKGRFTISRDDSKNTLYLQMNSLRAEDTAVYYCARLYNGNSLDYWGQGTLVTVSS
VL: DIQMTQSPSSLSASVGDRVTITCKSSQSLLNSGNQKSYLTWYQQKPGKAPKLLIYWASTLESGVPSRFSGSGSGTDFTLTISSLQPEDFATYYCQNAYSFPFTFGQGTKVEIK
B15: the Kd was found to be 0.323 nM.

These data come from patent US20200207857A1.
